The data set concerns the molecule itself. As to the kind of experiment: crystal structure; PHA-E (9 mg/ml, 20 mM Tris-HCl pH 8.0, 100 mM NaCl) with 0.6 mM bisected glycan 2; crystals from 0.1 M sodium acetate pH 4.5, 25% PEG3,350, 20 °C; 3.0 Å.

As usually defined, the stoichiometry N is a count of units in the complex or per binding partner.

B1: phytohemagglutinin from Phaseolus vulgaris (PHA-E) (natural protein, UniProt P05088 22-275, looked up)
chain: ASQTSFSFQRFNETNLILQRDATVSSKGQLRLTNVNDNGEPTLSSLGRAFYSAPIQIWDNTTGAVAASPTSFTFNIDVPNNSGPADGLAFVLLPVGSQPKDKGGLLGLFNNYKYDSNAHTVAVEFDTLYNVHWDPKPRHIGIDVNSIKSIKTTTWDFVKGENAEVLITYDSSTKLLVASLVYPSLKTSFIVSDTVDLKSVLPEWVIVGFTATTGITKGNVETNDILSWSFASKLSDGTTSEALNLANFALNQIL
notes: erythroagglutinating phytohemagglutinin (PHA-E), legume lectin from Phaseolus vulgaris; 120 kDa as tetramer; Crystallised with bisected glycan 2; eight subunits in the asymmetric unit; also called E4-PHA; PHA-E lectin; source: purified from Phaseolus vulgaris; bought: J-Oil Mills
With B1, the “stoichiometry N” value was 4.

Values taken from publication PMC4789653, “Atomic visualization of a flipped-back conformation of bisected glycans bound to specific lectins” (Scientific Reports, 2016).
